Assay [1] concerns the target human nectin-1 ectodomain, nectin-1(346t) (human) (UniProt Q15223). Description: SEC-MALS; SEC combined with multi-angle light scattering, purified proteins in solution; data not shown.
The target in a further assay is anti-nectin-1 Ig CK6. The assay can be described thus: ELISA. The settings on record: sub-panel CK6 (80-105); immobilized antibody captures N1V-MBP; detection with anti-MBP-HRP; parent: est. 100; read off a plot.
The target in assay [2] is HSV-1 glycoprotein D ectodomain truncated at residue 306 (gD306t). The assay can be described thus: ELISA. The settings on record: read at the highest gD(306t) concentration, about 300 µg/ml; N1V-MBP immobilized; parent: est. 1.5; read off a plot.
A further assay addresses MAb CK41. Description: ELISA. As to conditions: sub-panel CK41 (conf); immobilized antibody captures N1V-MBP; detection with anti-MBP-HRP; parent: est. 100; read off a plot.
The target in assay [3] is T1, human nectin-1 ectodomain, nectin-1(346t) (human), Q15223.
T1 chain: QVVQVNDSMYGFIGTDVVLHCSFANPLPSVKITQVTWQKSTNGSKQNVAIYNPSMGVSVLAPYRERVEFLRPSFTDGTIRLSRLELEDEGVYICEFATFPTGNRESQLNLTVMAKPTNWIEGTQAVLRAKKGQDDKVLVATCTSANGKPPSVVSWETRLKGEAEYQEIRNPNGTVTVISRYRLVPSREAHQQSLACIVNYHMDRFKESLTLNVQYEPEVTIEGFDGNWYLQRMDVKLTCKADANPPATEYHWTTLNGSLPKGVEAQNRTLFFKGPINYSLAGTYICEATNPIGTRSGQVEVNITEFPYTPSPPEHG
The assay can be described thus: SEC-MALS; SEC combined with multi-angle light scattering, purified proteins in solution; data not shown. As to conditions: remark: other sources report otherwise.

On to “HSV-1 KOS glycoprotein D ectodomain truncated at residue 285 (gD285t) (domain or fragment)”, for which, in assay [1], the stoichiometry N came to 1.

For “nectin-1 V-domain fused to maltose binding protein (N1V-MBP), wild type (from UniProt Q15223-1) F129S”, the percent of parent (% wt detection) with anti-nectin-1 Ig CK6 worked out at 93; with MAb CK41, 7. Besides, in assay [2], the response was determined as 0.2 OD405nm.

Take “nectin-1 V-domain fused to maltose binding protein (N1V-MBP), wild type (from UniProt Q15223-1) F129W”: the percent of parent (% wt detection) with anti-nectin-1 Ig CK6 came out at 91; with MAb CK41, 55. Also, the response in assay [2] is 1.3 OD405nm.

As for “nectin-1 V-domain fused to maltose binding protein (N1V-MBP), wild type (from UniProt Q15223-1) N82Y”, in the assay with anti-nectin-1 Ig CK6, the percent of parent (% wt detection) is 68. The response in assay [2] came to 0.12 OD405nm.

As for “nectin-1 V-domain fused to maltose binding protein (N1V-MBP), wild type (from UniProt Q15223-1) S84R”, the results for the percent of parent (% wt detection) with anti-nectin-1 Ig CK6 and in the assay with MAb CK41 were 90 and 120, respectively. Besides, the response in assay [2] was 1.3 OD405nm.

As to “nectin-1 V-domain fused to maltose binding protein (N1V-MBP), wild type (from UniProt Q15223-1) S84Y”, the values for the percent of parent (% wt detection) in the assay with anti-nectin-1 Ig CK6 and with MAb CK41 were 80 and 31, respectively. Also, the response in assay [2] is 0.55 OD405nm.

As for “nectin-1 V-domain fused to maltose binding protein (N1V-MBP), wild type (from UniProt Q15223-1) T66Q”, the percent of parent (% wt detection) with anti-nectin-1 Ig CK6 amounted to 110; with MAb CK41, 71. The response in assay [2] is 1.4 OD405nm.

B1: human nectin-1 ectodomain, nectin-1(346t), Q15223-1 31-346 (receptor)
chain: QVVQVNDSMYGFIGTDVVLHCSFANPLPSVKITQVTWQKSTNGSKQNVAIYNPSMGVSVLAPYRERVEFLRPSFTDGTIRLSRLELEDEGVYICEFATFPTGNRESQLNLTVMAKPTNWIEGTQAVLRAKKGQDDKVLVATCTSANGKPPSVVSWETRLKGEAEYQEIRNPNGTVTVISRYRLVPSREAHQQSLACIVNYHMDRFKESLTLNVQYEPEVTIEGFDGNWYLQRMDVKLTCKADANPPATEYHWTTLNGSLPKGVEAQNRTLFFKGPINYSLAGTYICEATNPIGTRSGQVEVNITEFPYTPSPPEHG
B1: in assay [3], the stoichiometry N was determined as 2.
